The record followed here is the supplement of paper PMC5998384.

Series [1] deals with HeLa Kyoto. Briefly: solubility in G1/S (NP-40 vs SDS abundance) (log2 ratio); higher = more soluble. Particulars: cell cycle stage: G1/S.
In series [2] the test system is HeLa Kyoto. As to the kind of experiment: solubility change mitosis vs G1/S (difference of NP-40 vs SDS log2 ratios) (log2 ratio difference); higher = more soluble in mitosis.
Series [3] concerns HeLa Kyoto. Briefly: thermal stability score vs G1/S (z-score of summed log2 fold changes over temperatures); higher = more thermally stable than in G1/S.
Setting [4] is: cell cycle stage: early G1 (4.5 h after nocodazole release).
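For solubility change mitosis vs G1/S (difference of NP-40 vs SDS log2 ratios) in this document: synchronized HeLa Kyoto cells (double thymidine block for G1/S, nocodazole release for mitosis), protein amounts in NP-40 versus SDS lysates quantified by mass spectrometry, three biological replicates.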
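For solubility in G1/S (NP-40 vs SDS abundance) in this document: HeLa Kyoto cells arrested at G1/S by double thymidine block, proteins quantified by TMT10plex mass spectrometry in mild NP-40 versus SDS extracts, three biological replicates.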
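For thermal stability score vs G1/S (z-score of summed log2 fold changes over temperatures) in this document: synchronized HeLa Kyoto cells, proteins quantified by TMT10plex mass spectrometry, three biological replicates, mitosis taken 0.5 h after nocodazole release, G1/S directly after double thymidine block.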

For “MKKSIGILSPGVALGMAGSAMSSKFFLVALAIFFSFAQVVIEANSWWSLGMNNPVQMSEVYIIGAQPLCSQLAGLSQGQKKLCHLYQDHMQYIGEGAKTGIKECQYQFRHRRWNCSTVDNTSVFGRVMQIGSRETAFTYAVSAAGVVNAMSRACREGELSTCGCSRAARPKDLPRDWLWGGCGDNIDYGYRFAKEFVDARERERIHAKGSYESARILMNLHNNEAGRRTVYNLADVACKCHGVSGSCSLKTCWLQLADFRKVGDALKEKYDSAAAMRLNSRGKLVQVNSRFNSPTTQDLVYIDPSPDYCVRNESTGSLGTQGRLCNKTSEGMDGCELMCCGRGYDQFKTVQTERCHCKFHWCCYVKCKKCTEIVDQFVCK [WNT5A]”, in the series with HeLa Kyoto [1], the “solubility in G1/S (log2)” value is -0.0436. The “solubility change mitosis (log2)” value in the series on HeLa Kyoto [2] was -0.0777. For the same sequence, the figures for the thermal stability score in the series with HeLa Kyoto [3] (setting [4]) and in the series on HeLa Kyoto [3] (cell cycle stage: mitosis) were -0.194 and 0.339, respectively.
The corresponding values for “MKLKLKNVFLAYFLVSIAGLLYALVQLGQPCDCLPPLRAAAEQLRQKDLRISQLQAELRRPPPAPAQPPEPEALPTIYVVTPTYARLVQKAELVRLSQTLSLVPRLHWLLVEDAEGPTPLVSGLLAASGLLFTHLVVLTPKAQRLREGEPGWVHPRGVEQRNKALDWLRGRGGAVGGEKDPPPPGTQGVVYFADDDNTYSRELFEEMRWTRGVSVWPVGLVGGLRFEGPQVQDGRVVGFHTAWEPSRPFPVDMAGFAVALPLLLDKPNAQFDSTAPRGHLESSLLSHLVDPKDLEPRAANCTRVLVWHTRTEKPKMKQEEQLQRQGRGSDPAIEV [B3GAT3]” are 0.166, -0.044, -0.256 and -0.376.
Consider “MKLVNIWLLLLVVLLCGKKHLGDRLEKKSFEKAPCPGCSHLTLKVEFSSTVVEYEYIVAFNGYFTAKARNSFISSALKSSEVDNWRIIPRNNPSSDYPSDFEVIQIKEKQKAGLLTLEDHPNIKRVTPQRKVFRSLKYAESDPTVPCNETRWSQKWQSSRPLRRASLSLGSGFWHATGRHSSRRLLRAIPRQVAQTLQADVLWQMGYTGANVRVAVFDTGLSEKHPHFKNVKERTNWTNERTLDDGLGHGTFVAGVIASMRECQGFAPDAELHIFRVFTNNQVSYTSWFLDAFNYAILKKIDVLNLSIGGPDFMDHPFVDKVWELTANNVIMVSAIGNDGPLYGTLNNPADQMDVIGVGGIDFEDNIARFSSRGMTTWELPGGYGRMKPDIVTYGAGVRGSGVKGGCRALSGTSVASPVVAGAVTLLVSTVQKRELVNPASMKQALIASARRLPGVNMFEQGHGKLDLLRAYQILNSYKPQASLSPSYIDLTECPYMWPYCSQPIYYGGMPTVVNVTILNGMGVTGRIVDKPDWQPYLPQNGDNIEVAFSYSSVLWPWSGYLAISISVTKKAASWEGIAQGHVMITVASPAETESKNGAEQTSTVKLPIKVKIIPTPPRSKRVLWDQYHNLRYPPGYFPRDNLRMKNDPLDWNGDHIHTNFRDMYQHLRSMGYFVEVLGAPFTCFDASQYGTLLMVDSEEEYFPEEIAKLRRDVDNGLSLVIFSDWYNTSVMRKVKFYDENTRQWWMPDTGGANIPALNELLSVWNMGFSDGLYEGEFTLANHDMYYASGCSIAKFPEDGVVITQTFKDQGLEVLKQETAVVENVPILGLYQIPAEGGGRIVLYGDSNCLDDSHRQKDCFWLLDALLQYTSYGVTPPSLSHSGNRQRPPSGAGSVTPERMEGNHLHRYSKVLEAHLGDPKPRPLPACPRLSWAKPQPLNETAPSNLWKHQKLLSIDLDKVVLPNFRSNRPQVRPLSPGESGAWDIPGGIMPGRYNQEVGQTIPVFAFLGAMVVLAFFVVQINKAKSRPKRRKPRVKRPQLMQQVHPPKTPSV [MBTPS1]”, for which the “solubility in G1/S (log2)” value in the series on HeLa Kyoto [1] came out at 0.0339. In addition, the “solubility change mitosis (log2)” value with HeLa Kyoto [2] is -0.198. Besides, the results for the thermal stability score in the series with HeLa Kyoto [3] (setting [4]) and with HeLa Kyoto [3] (cell cycle stage: mitosis) were -1.77 and -1.37, respectively.
For the sequence “MKVVPEKNAVRILWGRERGARAMGAQRLLQELVEDKTRWMKWEGKRVELPDSPRSTFLLAFSPDRTLLASTHVNHNIYITEVKTGKCVHSLIGHRRTPWCVTFHPTISGLIASGCLDGEVRIWDLHGGSESWFTDSNNAIASLAFHPTAQLLLIATANEIHFWDWSRREPFAVVKTASEMERVRLVRFDPLGHYLLTAIVNPSNQQGDDEPEIPIDGTELSHYRQRALLQSQPVRRTPLLHNFLHMLSSRSSGIQVGEQSTVQDSATPSPPPPPPQPSTERPRTSAYIRLRQRVSYPTAECCQHLGILCLCSRCSGTRVPSLLPHQDSVPPASARATTPSFSFVQTEPFHPPEQASSTQQDQGLLNRPSAFSTVQSSTAGNTLRNLSLGPTRRSLGGPLSSHPSRYHREIAPGLTGSEWTRTVLSLNSRSEAESMPPPRTSASSVSLLSVLRQQEGGSQASVYTSATEGRGFPASGLATESDGGNGSSQNNSGSIRHELQCDLRRFFLEYDRLQELDQSLSGEAPQTQQAQEMLNNNIESERPGPSHQPTPHSSENNSNLSRGHLNRCRACHNLLTFNNDTLRWERTTPNYSSGEASSSWQVPSSFESVPSSGSQLPPLERTEGQTPSSSRLELSSSASPQEERTVGVAFNQETGHWERIYTQSSRSGTVSQEALHQDMPEESSEEDSLRRRLLESSLISLSRYDGAGSREHPIYPDPARLSPAAYYAQRMIQYLSRRDSIRQRSMRYQQNRLRSSTSSSSSDNQGPSVEGTDLEFEDFEDNGDRSRHRAPRNARMSAPSLGRFVPRRFLLPEYLPYAGIFHERGQPGLATHSSVNRVLAGAVIGDGQSAVASNIANTTYRLQWWDFTKFDLPEISNASVNVLVQNCKIYNDASCDISADGQLLAAFIPSSQRGFPDEGILAVYSLAPHNLGEMLYTKRFGPNAISVSLSPMGRYVMVGLASRRILLHPSTEHMVAQVFRLQQAHGGETSMRRVFNVLYPMPADQRRHVSINSARWLPEPGLGLAYGTNKGDLVICRPEALNSGVEYYWDQLNETVFTVHSNSRSSERPGTSRATWRTDRDMGLMNAIGLQPRNPATSVTSQGTQTLALQLQNAETQTEREVPEPGTAASGPGEGEGSEYGASGEDALSRIQRLMAEGGMTAVVQREQSTTMASMGGFGNNIIVSHRIHRSSQTGTEPGAAHTSSPQPSTSRGLLPEAGQLAERGLSPRTASWDQPGTPGREPTQPTLPSSSPVPIPVSLPSAEGPTLHCELTNNNHLLDGGSSRGDAAGPRGEPRNR [AMBRA1]”, in the series with HeLa Kyoto [1], the “solubility in G1/S (log2)” value was 0.0307. In addition, the “solubility change mitosis (log2)” value in the series on HeLa Kyoto [2] was -0.123. Further, the thermal stability score in the series with HeLa Kyoto [3] (setting [4]) amounted to 0.941; in the series with HeLa Kyoto [3] (cell cycle stage: mitosis), 1.96.
In the same order, the values of “MLGPCMLLLLLLLGLRLQLSLGIIPVEEENPDFWNREAAEALGAAKKLQPAQTAAKNLIIFLGDGMGVSTVTAARILKGQKKDKLGPEIPLAMDRFPYVALSKTYNVDKHVPDSGATATAYLCGVKGNFQTIGLSAAARFNQCNTTRGNEVISVMNRAKKAGKSVGVVTTTRVQHASPAGTYAHTVNRNWYSDADVPASARQEGCQDIATQLISNMDIDVILGGGRKYMFRMGTPDPEYPDDYSQGGTRLDGKNLVQEWLAKRQGARYVWNRTELMQASLDPSVTHLMGLFEPGDMKYEIHRDSTLDPSLMEMTEAALRLLSRNPRGFFLFVEGGRIDHGHHESRAYRALTETIMFDDAIERAGQLTSEEDTLSLVTADHSHVFSFGGYPLRGSSIFGLAPGKARDRKAYTVLLYGNGPGYVLKDGARPDVTESESGSPEYRQQSAVPLDEETHAGEDVAVFARGPQAHLVHGVQEQTFIAHVMAFAACLEPYTACDLAPPAGTTDAAHPGRSVVPALLPLLAGTLLLLETATAP [ALPP]” are -0.46, -0.115, -3.03 and -2.91.
Regarding “MLPFLLATLGTTALNNSNPKDYCYSARIRSTVLQGLPFGGVPTVLALDFMCFLALLFLFSILRKVAWDYGRLALVTDADRLRRQERDRVEQEYVASAMHGDSHDRYERLTSVSSSVDFDQRDNGFCSWLTAIFRIKDDEIRDKCGGDAVHYLSFQRHIIGLLVVVGVLSVGIVLPVNFSGDLLENNAYSFGRTTIANLKSGNNLLWLHTSFAFLYLLLTVYSMRRHTSKMRYKEDDLVKRTLFINGISKYAESEKIKKHFEEAYPNCTVLEARPCYNVARLMFLDAERKKAERGKLYFTNLQSKENVPTMINPKPCGHLCCCVVRGCEQVEAIEYYTKLEQKLKEDYKREKEKVNEKPLGMAFVTFHNETITAIILKDFNVCKCQGCTCRGEPRPSSCSESLHISNWTVSYAPDPQNIYWEHLSIRGFIWWLRCLVINVVLFILLFFLTTPAIIITTMDKFNVTKPVEYLNNPIITQFFPTLLLWCFSALLPTIVYYSAFFEAHWTRSGENRTTMHKCYTFLIFMVLLLPSLGLSSLDLFFRWLFDKKFLAEAAIRFECVFLPDNGAFFVNYVIASAFIGNAMDLLRIPGLLMYMIRLCLARSAAERRNVKRHQAYEFQFGAAYAWMMCVFTVVMTYSITCPIIVPFGLMYMLLKHLVDRYNLYYAYLPAKLDKKIHSGAVNQVVAAPILCLFWLLFFSTMRTGFLAPTSMFTFVVLVITIVICLCHVCFGHFKYLSAHNYKIEHTETDTVDPRSNGRPPTAAAVPKSAKYIAQVLQDSEVDGDGDGAPGSSGDEPPSSSSQDEELLMPPDALTDTDFQSCEDSLIENEIHQ [TMEM63B]”, the “solubility in G1/S (log2)” value in the series with HeLa Kyoto [1] was -0.0696. For the same sequence, the “solubility change mitosis (log2)” value with HeLa Kyoto [2] was -0.109. The thermal stability score is -2.78 in the series with HeLa Kyoto [3] (setting [4]) and -2.41 in the series on HeLa Kyoto [3] (cell cycle stage: mitosis).
The corresponding values for “MLPRRLLAAWLAGTRGGGLLALLANQCRFVTGLRVRRAQQIAQLYGRLYSESSRRVLLGRLWRRLHGRPGHASALMAALAGVFVWDEERIQEEELQRSINEMKRLEEMSNMFQSSGVQHHPPEPKAQTEGNEDSEGKEQRWEMVMDKKHFKLWRRPITGTHLYQYRVFGTYTDVTPRQFFNVQLDTEYRKKWDALVIKLEVIERDVVSGSEVLHWVTHFPYPMYSRDYVYVRRYSVDQENNMMVLVSRAVEHPSVPESPEFVRVRSYESQMVIRPHKSFDENGFDYLLTYSDNPQTVFPRYCVSWMVSSGMPDFLEKLHMATLKAKNMEIKVKDYISAKPLEMSSEAKATSQSSERKNEGSCGPARIEYA [STARD7]” are 0.128, -0.155, -1.31 and -0.89.
In the same order, the values of “MLQNPQEKSQAYPRRRRPGCYAYRQNPEAIAAAAMYTFLPDNFSPAKPKPSKDLKPLLGSAVLGLLLVLAAVVAWCYYSVSLRKAERLRAELLDLKAGGFSIRNQKGEQVFRLAFRSGALDLDSCSRDGALLGCSLTADGLPLHFFIQTVRPKDTVMCYRVRWEEAAPGRAVEHAMFLGDAAAHWYGGAEMRTQHWPIRLDGQQEPQPFVTSDVYSSDAAFGGILERYWLSSRAAAIKVNDSVPFHLGWNSTERSLRLQARYHDTPYKPPAGRAAAPELSYRVCVGSDVTSIHKYMVRRYFNKPSRVPAPEAFRDPIWSTWALYGRAVDQDKVLRFAQQIRLHHFNSSHLEIDDMYTPAYGDFDFDEVKFPNASDMFRRLRDAGFRVTLWVHPFVNYNSSRFGEGVERELFVREPTGRLPALVRWWNGIGAVLDFTHPKARDWFQGHLRRLRSRYSVASFKFDAGEVSYLPRDFSTYRPLPDPSVWSRRYTEMALPFFSLAEVRVGYQSQNISCFFRLVDRDSVWGYDLGLRSLIPAVLTVSMLGYPFILPDMVGGNAVPQRTAGGDVPERELYIRWLEVAAFMPAMQFSIPPWRYDAEVVAIAQKFAALRASLVAPLLLELAGEVTDTGDPIVRPLWWIAPGDETAHRIDSQFLIGDTLLVAPVLEPGKQERDVYLPAGKWRSYKGELFDKTPVLLTDYPVDLDEIAYFTWAS [KIAA1161]” are 0.099, -0.254, -4.62 and -3.21.
